Experimental data published in US20260234247A1 (published 2026).

Experiments:
human LILRB1 = molecular target: T1, human LILRB1 (human, UniProt Q8NHL6 24-458, limits assumed); assay: Octet off-rate ranking;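 further: antibody dissociation rate constants against cynomolgus LILRB2 plus human LILRB1, LILRB2, LILRA1 and LILRA2, measured on an Octet instrument to rank binding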
T1 construct: also called hLILRB1
Description: Binding affinity of anti-LILRB1 and anti-LILRB2 antibodies against human LILRB1, LILRB2, LILRA1, LILRA2 and cynomolgus LILRB2 was ranked by measuring dissociation rate constant (Kdis) using the Octet system.

[1] = molecular target: T2, human LILRB2 expressed on CHOK1 cells (CHOK1-hLILRB2) (human, UniProt Q8N423 22-597); assay: FACS binding to CHOK1-hLILRB2 cells
T2 construct: whole, on cells; also called CHOK1-LILRB2

[2] = molecular target: T3, human LILRB1 expressed on CHOK1 cells (CHOK1-hLILRB1) (human, UniProt Q8NHL6 24-650); assay: FACS binding to CHOK1-hLILRB1 cells
T3 construct: whole, on cells; also called CHOK1-LILRB1
T3 sequence (Q8NHL6 24-650): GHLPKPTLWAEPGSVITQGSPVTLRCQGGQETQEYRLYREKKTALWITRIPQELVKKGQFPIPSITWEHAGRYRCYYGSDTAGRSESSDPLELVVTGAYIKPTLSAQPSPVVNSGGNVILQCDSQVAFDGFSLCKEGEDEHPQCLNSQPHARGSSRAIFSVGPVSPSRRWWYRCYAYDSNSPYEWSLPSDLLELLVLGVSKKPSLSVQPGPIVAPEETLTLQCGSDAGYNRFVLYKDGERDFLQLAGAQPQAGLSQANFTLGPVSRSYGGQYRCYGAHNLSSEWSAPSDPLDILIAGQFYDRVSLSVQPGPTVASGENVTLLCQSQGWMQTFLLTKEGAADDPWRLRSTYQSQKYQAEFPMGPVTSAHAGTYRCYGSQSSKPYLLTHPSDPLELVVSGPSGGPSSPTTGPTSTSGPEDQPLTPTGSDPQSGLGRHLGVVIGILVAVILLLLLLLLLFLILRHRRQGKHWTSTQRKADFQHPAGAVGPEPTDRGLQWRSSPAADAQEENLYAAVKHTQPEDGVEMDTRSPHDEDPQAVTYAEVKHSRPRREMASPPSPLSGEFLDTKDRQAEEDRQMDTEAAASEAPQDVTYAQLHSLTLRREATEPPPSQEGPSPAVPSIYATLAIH

T2 sequence (Q8N423 22-597): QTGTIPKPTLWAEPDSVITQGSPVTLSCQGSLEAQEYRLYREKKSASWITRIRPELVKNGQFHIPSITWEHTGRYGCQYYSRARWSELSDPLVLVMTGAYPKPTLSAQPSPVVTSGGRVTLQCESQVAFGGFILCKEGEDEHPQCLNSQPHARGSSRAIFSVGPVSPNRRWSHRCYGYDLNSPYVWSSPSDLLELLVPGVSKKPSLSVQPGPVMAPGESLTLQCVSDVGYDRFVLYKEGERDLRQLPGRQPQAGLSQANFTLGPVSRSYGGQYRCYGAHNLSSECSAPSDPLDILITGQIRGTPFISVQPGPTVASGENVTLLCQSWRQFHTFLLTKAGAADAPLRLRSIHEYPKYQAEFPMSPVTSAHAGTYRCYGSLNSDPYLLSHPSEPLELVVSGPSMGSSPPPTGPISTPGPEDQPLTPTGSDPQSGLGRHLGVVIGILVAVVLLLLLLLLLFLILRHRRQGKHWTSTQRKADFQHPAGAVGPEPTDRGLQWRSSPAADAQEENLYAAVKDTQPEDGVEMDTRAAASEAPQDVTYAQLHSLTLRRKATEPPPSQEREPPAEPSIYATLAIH
T1 sequence (Q8NHL6 24-458 limits assumed): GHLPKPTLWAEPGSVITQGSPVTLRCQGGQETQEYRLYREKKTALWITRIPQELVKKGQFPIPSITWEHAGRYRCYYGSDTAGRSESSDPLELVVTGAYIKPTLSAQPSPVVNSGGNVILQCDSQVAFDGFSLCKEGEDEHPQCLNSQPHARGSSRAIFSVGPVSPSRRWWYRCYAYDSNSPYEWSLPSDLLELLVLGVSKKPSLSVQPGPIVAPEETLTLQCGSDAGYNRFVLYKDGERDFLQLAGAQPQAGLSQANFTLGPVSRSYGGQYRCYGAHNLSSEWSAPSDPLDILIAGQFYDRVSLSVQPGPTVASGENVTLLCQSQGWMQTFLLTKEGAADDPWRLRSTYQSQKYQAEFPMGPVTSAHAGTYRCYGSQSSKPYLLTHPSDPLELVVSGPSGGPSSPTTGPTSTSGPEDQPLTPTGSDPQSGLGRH

Row | Binder | koff (human LILRB1) [s⁻¹] | EC50 [1] [pM] | binding result [2] | also measured
1 | LK-RB1-55 (antibody, human IgG4 S228P, kappa, V domains shown) VH: EVKLVESGGGLVQPGGSLKLSCAASGFTFSDYYMYWVRQTPEKRLEWVAYISNGGDITFYPDTVKGRFTISRDNARSTLYLQMSRLKSEDTAIYYCASATTEVGAMDHWGQGTSVTVSS VL: DIVMTQSQKFMSTTVGDRVSITCKASQNVGTAVAWYQQKPGKSPKLLIYAASNRYTGVPDRFTGSGSGTDFTLTISNMQSEDLADYFCQQYSSYRTFGGGTNLEIKR | < 1e-07 | – | – | –
2 | LK-RB1-48 (antibody, human IgG4 S228P, kappa, V domains shown) VH: EVKLVESGGGLVQPGGSLKLSCAASGFTFSDYYMYWVRQTPEKRLEWVAYISNGGGISFYPDTVKGRFTISRDNAKNTLYLQMSRLKSEDTAIYYCASATKEVGAMDYWGQGTSVTVSS VL: DIVMTQSQKFLSTTVGDRVSITCKASQNVGTAVAWYQQKPGQSPKILIYSASNRYTGVPDRFTGSGSGTDFTLTISNMQSEDLADYFCQQYSSYRTFGGGTKLEIKR | 8.47e-06 | – | – | –
3 | LK-RB1-57 (antibody, human IgG4 S228P, kappa, V domains shown) VH: EVKLVESGGGLVQPGGSLKLSCAASGFTFSDYYMYWVRQTPEKRLEWVAYISNGGDITFYPDTVKGRFTISRDNARSTLYLQTSRLKSEDTAIYYCASATTEVGAMDHWGQGTSVTVSS VL: DIVMTQSQKFMSTTVGDRVSITCKASQNVGTAVAWYQQKPGKSPKLLIYAASNRYTGVPDRFTGSGSGTDFTLTISNVQSEDLADYFCQQYSSYRTFGGGTSLEIKR | < 1e-07 | – | – | –
4 | LK-RB1-44 (antibody, human IgG4 S228P, kappa, V domains shown) VH: QVQLQQSGTELAKPGASVKLSCKASGYTFTNYWMHWIKQRPGQGLEWIGYVHPTSDYTKYNQKFKDKATLTADKSSSTAYMQLNSLTYEDSAVYYCTRSSLYDTNYVFDSWGQGTTLTVSS VL: DILLTQSPAILSVSPGERVSFSCRASQSIGRSIHWFQQRTNGSPSLLIKYASESISGIPSRFSGGGSGTDFTLSISNVESEDIADYYCQQSNNWPFTFGSGTKLEIKR | 0.000559 | – | – | –
5 | LK-RB1-45 (antibody, human IgG4 S228P, kappa, V domains shown) VH: QVQLQQSGTELARPGASVKLSCKASGYTFTNFWMHWIKQRPGQGLEWIGYVNPTSDYTKYNQKFKDKATLTADKSSSTAYMQLNSLTYEDSAVYYCTRSSLYDTNYVFDSWGQGTTLTVSS VL: DILLTQSPAILSVSPGERVSFSCRASQSIGRSIHWYQQRTNGSPRLLIKYASESISGIPSRFSGGGSGTDFTLSISNVESEDIADYYCQQSNNWPFTFGSGTKLEIKR | 0.000611 | – | – | –
6 | LK-RB1-46 (antibody, human IgG4 S228P, kappa, V domains shown) VH: EVQLQQSGPELVKPGASVKISCKTSGYTFTDYYMNWVKQSHGKSLEWIGDIYPINGDISYNQKFKGKATLTVDKSSSTVYMEIRSLTYEDSAVYYCARLAQTTSGGFDYWGQGTTLTVSS VL: DIVLTQSPTSLAVSLGQRAIISCKASQSVSFAGTSLMHWYQQKPGQQPKLLIYRASNLKAGVPTRFSGSGSRTDFTLNIHPVEEDDAATYYCQQSREYPMYTFGGGTKLEIKR | 0.000739 | – | – | –
7 | LK-RB2-6 (antibody, human IgG4 S228P, kappa, V domains shown) VH: QIQLVQSGPELKKPGETVKISCKASGYTFTTYGMSWVKQAPGKGLEWMGWINIYSGVPTYADDFKGRFAFSLETSASTAYLQINNLKNEDTATYFCARRGDYDSFYFDYWGQGTTLTVSS VL: DIVMSQSPSSLAVSVGEKVTVSCKSSQSLLYSYNQKNYLAWYQQKPGQSPKLLIYWSSTRESGVPDRFTGSGSGTDFTLTISSVKAEDLAVYYCQQCYNYPYTFGGGTKLEIKR | – | 660 | no binding | –
8 | LK-RB2-13 (antibody, human IgG4 S228P, kappa, V domains shown) VH: QIQLVQSGPELKKPGETVKISCKASGYTFTTYGMSWVKQAPGKGLQWMGWINTYSGVPTFADDFKGRFAFSLDTSASTAYLQINNLKNEDTATYFCARRINWDGYAMDYWGQGTSVTVSS VL: DSVMSQSPSSLAVSVGEKVTMSCKSSQSLLYSGNQKSYLAWYQQKPGQSPKLLIYWASTRESGVPDRFTGSGSGTDFTLTISSVKAEDLAVYYCQQYYSYPYTFGGGTKLEIKR | – | 230 | no binding | –
9 | LK-RB2-17 (antibody, human IgG4 S228P, kappa, V domains shown) VH: QIQLVQSGPELKKPGETVKISCKASGYTFTNYGMSWVKQAPGKGLQWMGWINTYSGVPTFADDFRGRFAFSLDTSASTAYLQINSLKNEDTAAYFCARRINWDGYAMDYWGQGTSVTVSS VL: DSVMSQSPSSLAVSVGEKVTLSCKSSQSLLYSGNQKSYLAWYQQKPGQSPKLLIYWASSRESGVPDRFTGSGSGTDFTLTISSVKAEDLAVYYCQQYYSFPYTFGGGTKLEIKR | – | 160 | no binding | –
10 | LK-RB2-11 (antibody, human IgG4 S228P, kappa, V domains shown) VH: QIQLVQSGPELKKPGETVKISCKASGYSFITYGMSWVKQAPGKGLKWMGWINTYSGEPTYGDDFMGRFAFSLETSASTAYLQINNLKNEDTASYFCARYHYDDGMDYWGQGTSVTVSS VL: DIKMTQSPSSMYASLGERVTITCKASQDINNYLSWFQQKPGKSPKTLIFRANRLVDGVPSRFSGSGSGQDYSLTISSLEDEDMGIYYCLQYDEFPWMFGGGTKLEIER | – | 270 | no binding | –
11 | LK-RB2-25 (antibody, human IgG4 S228P, kappa, V domains shown) VH: QVQLKESGPGLVAPSQSLSITCTVSGFSLTSYGVHWVRQPPGKGLEWLGVIWAGGSTKYNSALMSRLSINKDNSKSQVFLKMNSLQTDDTAMYYCARDQMVRSAMDYWGQGTSVTVSS VL: DIQMIQSPSSMFASLGDRVSLSCRASQGIRGNLDWYQQKPGGTIKLLIYSTSNLNSAVPSRFSGSGSGSDYSLTISNLESEDFADYYCLQRNASPYTFGGGTKLEIKR | – | – | – | binding result [1]: no binding; EC50 [2]: 1710 pM
12 | LK-RB2-10 (antibody, human IgG4 S228P, kappa, V domains shown) VH: EVMLVESGGDLVKPGGSLKLSCAASGFTFSANTVSWLRRTPERRLEWVATISGGSDNTYCPDSVKGRFTISRDNARDTLYLQMSSLTSEDTALYFCARHYYDGPNWYFDVWGPGTTVTVSS VL: DIVMTQSQKFMSSTGGDRVTITCKASQNVDTAVAWYQQKPGQSPKLLIYSASNRYIGVPDRFKGSGSGTDFSLTITNIQSEDLAEYFCQQYSSYPLTFGAGTKLELKR | – | 270 | no binding | –
13 | LK-RB1-43 (antibody, human IgG4 S228P, kappa, V domains shown) VH: EFQLQQSGPELMKPGASVKISCKASGYSFTDYNMNWVKQSNGKSLEWIGIIDPNYGTTTYNQKFKGRATLTVDQSSNTAYMQLNSLTSEDSAVYYCAREGRYSWFAYWGQGTLVTVSA VL: DIQMTQSPGALSVSVGETVTITCRASENINSNLAWYQQKQGKSPQLLVYAATNLADGVPSRFSGSGSGTQYSLKINSLQSEDFGSYHCQHFWGTPFTFGSGTKLEIKR | 0.000364 | – | – | –
14 | 12D12 (antibody, human IgG4 S228P, kappa, V domains shown) VH: QVQLQQPGAELVKPGASVRMSCKASGYTFTSYWVHWVKQRPGQGLEWIGVIDPSDSYTSYNQNFKGKATLTVDTSSKTAYIHLSSLTSEDSAVYFCARGERYDGDYFAMDYWGQGTSVTVSS VL: DIVMTQSPASLSVSVGETVTITCRASENIYSNLAWYQQKQGKSPQLLVYAATNLADGVPSRFSGSRSGTQYSLKINSLQSEDFGTYYCQHFWNTPRTFGGGTKLEIKR | 0.000338 | – | – | –
15 | LK-RB2-7 (antibody, human IgG4 S228P, kappa, V domains shown) VH: DVKLVESGEGLVKPGGSLKLSCAASGFTFSSYAMSWVRQTPEMRLEWVAYISSGGDHFYYADTVKGRFTISRDNARSTLYLQMSSLKSEDTAMYYCTREGASYDSNFLAWFAYWGQGTLVTVSA VL: DIQMTQSPASLSVSVGETVTITCRASENIYSNLAWYQQKEGKSPQLLVYGATNLADGVPSRFSGSGSGTQYSLKINSLQSEDFGSYYCQNFWDIPLTFGAGTKLELKR | – | 250 | no binding | –
16 | LK-RB2-18 (antibody, human IgG4 S228P, kappa, V domains shown) VH: EVQLQQSGPELVKPGTSVKISCKASGYTFTDYYMNWVKQSHGKSLEWIGDINPNNGGTSYNQKFKGKATLTVDKSSSTAYMELRSLTSEDSAVFYCARSGTTVVGTYWYFDVWGTGTTVTVSS VL: DIQMTQSPASLSVSVGETVTITCRASENIYSNLAWYQQKQGKSPQLLVYGATNLADGVPSRFSGSGSGTQYSLKINSLQSEDFGSYYCQHFWDTPFTFGSGTKLEIKR | – | 140 | no binding | –
17 | LK-RB2-9 (antibody, human IgG4 S228P, kappa, V domains shown) VH: DVQLQESGPGLVKPSQSLSLTCSVTGYSITSGYYWNWIRQFPGNKLEWMGYIGYDGNNNYNPSLKNRISITRDTSKNQFFLKLNSLTTEDTATYYCAREGSTMVTSWFAYWGQGTLVTVSA VL: DIQMTQSPASLSVSVGETVTITCRASENIYSNLAWYQQKQGKSPQLLVYGATNLADGVPSRFSGRGSDTQYSLKINSLQSEDFGSYYCQHFWDTPYTFGGGTKLEIKR | – | 170 | no binding | –
18 | LK-RB2-32 (antibody, human IgG4 S228P, kappa, V domains shown) VH: DVQLQESGPGLVKPSQSLSLTCSVTGYSITSGYYWNWIRQFPGNKLEWMGYISFDGSNHYNPSLRNRISITRDTFKNQFFLKLNSVTTEDTATFYCTRRDYNWFAYWGQGTLVTVSA VL: DIVLTQSPVTLSVTPGDSVSLSCRASQNINKNLHWYQQRSHESPRLLIKYVSQSISGIPSRFSGSGSGTDFTLSINSVETEDFGMYFCQQSNSWPLTFGAGTKLELRR | – | – | – | EC50 [2]: 4540 pM
19 | LK-RB2-20 (antibody, human IgG4 S228P, kappa, V domains shown) VH: QVQLKQPGAERVKPGASVKMSCKASGYTFTRYWITWVKQRPGQGLEWIGDIYPGSATTNYNEKFKSKATLTEDTSSSTAYMQLSSLTSEDSAVYYCARSGDYSNSNYAMDYWGQGTSVTVSS VL: NIEMTQSPKSMSMAVGERVTLSCKASENVGTYVSWYQQKPEQSPKLLIYGASNRNTGVPDRFTGSGSATDFTLTISSVQAEDLADYHCGQSYSYPFTFGSGTKLEIKR | – | 140 | no binding | –
20 | LK-RB1-42 (antibody, human IgG4 S228P, kappa, V domains shown) VH: QVQLQQPGAELVKPGTSVKLSCKASGYSFISYWVYWVKQRPGQGLEWIGMIHPNSGSTNFNEKFRYKATLTVDKSSSTAYIQLSSLTSEDSAVYYCGRSDDGYPYHAMDSWGQGTSVTVSS VL: DIVMTQSQKFMSTSVGDRVSVTCKASQNVGTNVAWYQQKPGQSPKALIYSASYRFSGVPDRFTGSGSGTDFTLTIGNVQSEDLAEYFCHQYKNYPLTFGGGTKLEIKR | 0.000139 | – | – | –
